The test system of one experiment is cuprizone-treated mice. Nature of the experiment: Cuprizone demyelination model, stereotactic injection into corpus callosum. In kind it is in vivo. Conditions: injected into corpus callosum at 2, 2.5 and 3 weeks of cuprizone feeding. The text has this: Adult wild-type C57Bl/6 male mice were fed cuprizone (0.2% milled with ground mouse chow by weight) for 6 weeks to induce demyelination within the corpus callosum. Sp35-Fc was stereotactically injected into the demyelinating corpus callosum at 2, 2.5, and 3 weeks of cuprizone feeding. Control mice were stereotactically injected at the same intervals with sterilized media containing no Sp35-Fc. After 6 weeks of cuprizone feeding, the mice were returned to a normal diet for 2, 4 and 6 weeks (ground mouse chow only) to allow remyelination.
The cuprizone-treated mice were anesthetized with ketamine (80 mg/kg body weight) and xylazine (10 mg/kg body weight) and positioned in an immobilization apparatus designed for stereotactic surgery (David Kopf Instruments). The scalp was opened and the sterile compounds injected (1 μM in […] of HBSS) unilaterally into the acutely demyelinated corpus callosum of the wild-type recipient mice with a […] Hamilton syringe using stereotactic coordinates of 0.7 mm posterior and 0.3 mm lateral to bregma at a depth of 1.7 mm (Messier et al., Pharmacol. Biochem. Behav. 63(2): 313-18 (1999)). Additionally, control recipient mice were stereotactically injected with HBSS containing no compounds. The opening in the skull was filled with Gelfoam, and the area was swabbed with penicillin and streptomycin (Gibco) and the wound was sutured. […]

The test system of another experiment is spinal cord injury rats. Description: Spinal cord injury (dorsal hemisection T6/T7), intrathecal mini-osmotic pump. In kind it is in vivo, rat.
The test system of another experiment is A2B5+ oligodendrocytes. Description: Differentiation of A2B5+ oligodendrocytes treated with Sp35-Fc (O4 staining). It is filed as cell-based, rat. The following applies: increasing concentrations, versus control-Fc, FIG. 8. The protocol: Enriched populations of oligodendrocytes were grown from female Long Evans P2 rats as described by Conn, Meth. Neurosci. 2:1-4 (Academic Press; 1990) with modifications as follows. Briefly, the forebrain was dissected and placed in Hank's buffered salt solution (HBSS; Invitrogen). The tissue was cut into 1-mm fragments and was incubated at 37° C. for 15 min in 0.01% trypsin and 10 μg/ml DNase. Dissociated cells were plated on poly-L-lysine-coated T75 tissue culture flasks and were grown at 37° C. for 10 d in DMEM medium with 20% fetal calf serum (Invitrogen). Oligodendrocyte precursors (A2B5+) were collected by shaking the flask overnight at 200 rpm at 37° C., resulting in a 95% pure population. […] These differentiation states are readily apparent from changes in morphology: A2B5^+ cells are bipolar in shape, O4^+ premyelinating oligodendrocytes have longer and more branched processes and MBP^+ mature oligodendrocytes contain myelin sheet structures between processes.
A2B5^+ oligodendrocytes, prepared as described in Example 1, were treated with increasing concentrations of Sp35-Fc or control-Fc for 3 days (Sp35-Fc was prepared as described in Example 2). […] After 48 h (72 h for RNAi), cultures were stained with antibody to O4, and the number of total O4+ and mature O4+ oligodendrocytes was quantified. Samples were analyzed in duplicate. […]

Experiment [1] deals with differentiated PC12 cells. Nature of the experiment: Apoptotic cell death in differentiated PC12 cells after NGF withdrawal (cell death ELISA / TUNEL). It is filed as cell-based. As for the experimental part: PC12 cells (Neuroscreen) were differentiated in RPMI-1640 medium supplemented with 5% fetal bovine serum, 10% horse serum, 2 mM glutamine, 100 U/ml penicillin and […] streptomycin containing 200 ng/ml NGF for 7 days. For experiments, the culture media was replaced with NGF-free culture media containing Sp35-Fc, human IgG as a negative control (0.1-10 μM), or zVAD as a positive control (0.1 μM). 18 hours after NGF withdrawal, activated Caspase-3 was quantified using the Caspase 3/7 Glo kit (Promega) according to the manufacturer's instructions. 42 hours after NGF withdrawal, apoptotic cell death was quantified using a cell death detection ELISA kit (Roche) according to the manufacturer's instructions.
(ELISA stands for enzyme-linked immunosorbent assay.)

The subject of another experiment is mature oligodendrocytes. Nature of the experiment: Survival and MBP expression of mature oligodendrocyte cultures treated with Sp35-Fc. In kind it is cell-based, rat. The following applies: 10 μg/ml for 5 days. The protocol:
Mature oligodendrocytes have a half-life in vitro of about 48 to 72 hours, with cells typically undergoing apoptosis after 72 hours. […] MBP expression was monitored as a marker for mature ologodendrocytes.

The subject of the next experiment is RhoA-GTP. Description: RhoA-GTP levels in oligodendrocyte lysates by western blotting. It is filed as cell-based, rat. Conditions: FIG. 9A. From the text: A strong candidate signaling pathway that is implicated in the control of oligodendrocyte differentiation is the Rho family of GTPases. Rho GTPases regulate cellular morphology, and reduced RhoA-GTP amounts are required for oligodendrocyte differentiation. See Liang, X, et al., J. Neurosci. 24:7140-7149 (2004). To determine whether Sp35 signals through the RhoA pathway, RhoAGTP levels in cell lysates of oligodendrocytes treated with Sp35-Fc were compared with levels in the corresponding control via western blotting.
(Immunoblotting shows a protein as a band on a membrane.)

Experimental for spinal cord injury rats: Spinal cord injury was induced in adult female Long Evans rats (190-210 g; Charles River). A dorsal hemisection was performed at T6/T7, completely interrupting the main dorsomedial and the minor dorsolateral corticospinal tract (CST) components. The cord was sterotaxically transected at a depth of 1.8 mm from the surface using a microscalpel. […] Postoperative care comprised analgesia (Buprenorphine/Buprenex, Reckitt Benckiset Healthcare Ltd., 0.05 mg/kg subcutaneously) every 8-12 hours for 3 days and antibiotic treatment (ampicillin, Bristol Myers Squibb, 100 mg/kg subcutaneously twice daily) for 7 days after surgery. Bladders were expressed manually twice a day for the duration of the study (4 weeks) or until return of function. On completion of the study, rats were anesthetized and trans-cardially perfused with heparinized saline followed by 4% paraformaldehyde (PFA). The spinal cords were removed, embedded in paraffin, and 10 μm sections were cut from for histological analysis.
To quantify apoptotic cell death after SCI, animals were euthanized 3 or 7 days after SCI and stained using anti-activated-Caspase-3 antibody (Cell Signaling Technologies) and TUNEL staining (Promega). The sections were also stained with anti-NeuN antibody (Chemicon) and anti-CC1 antibody (Calbiochem) to identify neurons and oligodendrocytes, respectively.

B1: Sp35-Fc: extra-cellular portion of human Sp35 (residues 1-532) fused to the hinge and Fc region of human IgG1 (protein)
chain: TGCPPRCECSAQDRAVLCHRKRFVAVPEGIPTETRLLDLGKNRIKTLNQDEFASFPHLEELELNENIVSAVEPGAFNNLFNLRTLGLRSNRLKLIPLGVFTGLSNLTKLDISENKIVILLDYMFQDLYNLKSLEVGDNDLVYISHRAFSGLNSLEQLTLEKCNLTSIPTEALSHLHGLIVLRLRHLNINAIRDYSFKRLYRLKVLEISHWPYLDTMTPNCLYGLNLTSLSITHCNLTAVPYLAVRHLVYLRFLNLSYNPISTIEGSMLHELLRLQEIQLVGGQLAVVEPYAFRGLNYLRVLNVSGNQLTTLEESVFHSVGNLETLILDSNPLACDCRLLWVFRRRWRLNFNRQQPTCATPEFVQGKEFKDFPDVLLPNYFTCRRARIRDRKAQQVFVDEGHTVQFVCRADGDPPPAILWLSPRKHLVSAKSNGRLTVFPDGTLEVRYAQVQDNGTYLCIAANAGGNDSMPAHLHVRSYSPDWPHQPNKTFAFISNQPGE
modifications: left off: a dimerising Fc or GST
notes: extra-cellular portion of human Sp35 (residues 1-532) fused to the hinge and Fc region of human IgG1
Turning to B1, the “axon myelination by IHC (anti-MBP antibody or luxol fast blue)” value in the experiment on cuprizone-treated mice was “increased”. The “mature oligodendrocyte survival (CC1 antibody staining)” value with cuprizone-treated mice (FIG. 12) is given as “increased mature oligodendrocyte survival”. The “number of activated-Caspase-3-positive neurons and oligodendrocytes versus controls” value with spinal cord injury rats (3 days after SCI, 0.25 μl/h of 25 μM intrathecal) is reported as “significantly smaller”. Further, the “neuron and oligodendrocyte survival around the lesion site (anti-βIII-tubulin, anti-O4)” value with spinal cord injury rats (four weeks after SCI) was “more neurons and oligodendrocytes survived”. The “differentiation of A2B5+ cells into O4+ cells” value in the experiment with A2B5+ oligodendrocytes is on record as “promoted differentiation of A2B5^+ cells into O4^+ cells in a concentration dependent manner”; in the experiment with A2B5+ oligodendrocytes (listed as LINGO-1-Fc), “Dose-dependent differentiation”. In experiment [1] (18 hours after NGF withdrawal, FIG. 13 legend), the “cells undergoing apoptosis (TUNEL assay)” value is on record as “fewer cells undergoing apoptosis”. Further, in experiment [1] (42 hours after withdrawal of NGF, FIG. 13), the “cell death (TUNEL ELISA)” value is on record as “significantly reduced cell death”. In addition, the “increase in MBP protein expression (cell staining and Western blot)” value with mature oligodendrocytes (compared to control-Fc treated cells) is on record as “approximately 3 fold”. The “survival rate for mature oligodendrocytes (cell viability staining)” value in the experiment with mature oligodendrocytes (versus control-Fc) is listed as “significantly increased survival rate”. Besides, the “RhoA-GTP amount versus control” value with RhoA-GTP is listed as “threefold reduction”.
